Source: the Immune Epitope Database (IEDB)

Legend:
HLA-B*07:02 = experiment: IEDB peptide-MHC binding, purified MHC/competitive/fluorescence; filed as Kd, often an IC50 or EC50 that approximates it; ≥ and ≤ were set here for values at or beyond the usual limits of such assays; details: source organism: Vibrio vulnificus YJ016
HLA-A*30:01 = experiment: as above; details: source organism: Vibrio vulnificus YJ016
HLA-A*01:01 = experiment: as above
HLA-A*66:01 = experiment: as above
HLA-A*23:01 [1] = experiment: as above; details: source organism: Vibrio vulnificus YJ016
HLA-B*44:02 = experiment: as above
HLA-A*11:01 = experiment: as above
HLA-B*27:05 = experiment: as above
HLA-B*58:01 = experiment: as above
HLA-B*08:01 = experiment: as above
HLA-A*30:02 = experiment: as above
HLA-B*53:01 = experiment: as above
HLA-B*40:01 = experiment: as above
HLA-B*14:02 = experiment: as above
HLA-A*03:01 = experiment: IEDB peptide-MHC binding, purified MHC/direct/fluorescence; filed as Kd, often an IC50 or EC50 that approximates it; ≥ and ≤ were set here for values at or beyond the usual limits of such assays
HLA-A*24:03 = experiment: as above
HLA-A*26:01 = experiment: as above
HLA-B*57:01 = experiment: as above
HLA-B*27:03 = experiment: as above
HLA-A*02:06 = experiment: as above; details: source organism: Vibrio vulnificus YJ016
HLA-B*39:01 = experiment: as above
HLA-B*46:01 = experiment: as above
HLA-A*02:12 = experiment: as above
HLA-B*15:01 = experiment: as above
HLA-B*18:01 = experiment: as above
HLA-A*29:02 = experiment: as above
HLA-A*02:01 = experiment: as above
HLA-B*15:17 = experiment: as above
HLA-B*51:01 = experiment: as above
HLA-A*02:19 = experiment: as above
HLA-A*68:02 = experiment: as above; details: source organism: Brucella melitensis bv. 1 str. 16M
HLA-A*23:01 [2] = experiment: as above; details: source organism: Brucella melitensis bv. 1 str. 16M
HLA-A*02:11 = experiment: as above; details: source organism: Brucella melitensis bv. 1 str. 16M
HLA-A*02:03 = experiment: as above; details: source organism: Brucella melitensis bv. 1 str. 16M
HLA-A*02:16 = experiment: as above; details: source organism: Brucella melitensis bv. 1 str. 16M
[3] = source organism: Vibrio vulnificus YJ016
[4] = source organism: Brucella melitensis bv. 1 str. 16M

SVFELSNFA
Kd (HLA-B*07:02): ≥ 5 µM | Kd (HLA-A*30:01): ≥ 5 µM | Kd (HLA-A*01:01; [3]): ≥ 5 µM | Kd (HLA-A*66:01; [3]): ≥ 5 µM | Kd (HLA-A*23:01 [1]): ≥ 5 µM | Kd (HLA-B*44:02; [3]): ≥ 5 µM | Kd (HLA-A*11:01; [3]): ≥ 5 µM | Kd (HLA-B*27:05; [3]): ≥ 5 µM | Kd (HLA-B*58:01; [3]): ≥ 5 µM | Kd (HLA-B*08:01; [3]): ≥ 5 µM | Kd (HLA-A*30:02; [3]): ≥ 5 µM | Kd (HLA-B*53:01; [3]): ≥ 5 µM | Kd (HLA-B*40:01; [3]): ≥ 5 µM | Kd (HLA-B*14:02; [3]): ≥ 5 µM | Kd (HLA-A*03:01; [3]): ≥ 20 µM | Kd (HLA-A*24:03; [3]): ≥ 20 µM | Kd (HLA-A*26:01; [3]): ≥ 20 µM | Kd (HLA-B*57:01; [3]): ≥ 20 µM | Kd (HLA-B*27:03; [3]): ≥ 20 µM | Kd (HLA-A*02:06): 0.002 µM | Kd (HLA-B*39:01; [3]): ≥ 20 µM | Kd (HLA-B*46:01; [3]): ≥ 20 µM | Kd (HLA-A*02:12; [3]): 0.679 µM | Kd (HLA-B*15:01; [3]): ≥ 20 µM | Kd (HLA-B*18:01; [3]): ≥ 20 µM | Kd (HLA-A*29:02; [3]): ≥ 20 µM | Kd (HLA-A*02:01; [3]): 0.008 µM | Kd (HLA-B*15:17; [3]): ≥ 20 µM | Kd (HLA-B*51:01; [3]): ≥ 20 µM | Kd (HLA-A*02:19; [3]): ≥ 20 µM

TTRAVNMEV
Kd (HLA-A*01:01; [4]): ≥ 5 µM | Kd (HLA-A*66:01; [4]): ≥ 5 µM | Kd (HLA-B*44:02; [4]): ≥ 5 µM | Kd (HLA-A*11:01; [4]): ≥ 5 µM | Kd (HLA-B*27:05; [4]): ≥ 5 µM | Kd (HLA-B*58:01; [4]): ≥ 5 µM | Kd (HLA-B*08:01; [4]): ≥ 5 µM | Kd (HLA-A*30:02; [4]): ≥ 5 µM | Kd (HLA-B*53:01; [4]): ≥ 5 µM | Kd (HLA-B*40:01; [4]): ≥ 5 µM | Kd (HLA-B*14:02; [4]): ≥ 5 µM | Kd (HLA-A*03:01; [4]): ≥ 20 µM | Kd (HLA-A*24:03; [4]): ≥ 20 µM | Kd (HLA-A*68:02): ≤ 0.001 µM | Kd (HLA-A*26:01; [4]): ≥ 20 µM | Kd (HLA-B*57:01; [4]): ≥ 20 µM | Kd (HLA-A*23:01 [2]): ≥ 20 µM | Kd (HLA-B*27:03; [4]): ≥ 20 µM | Kd (HLA-A*02:11): ≥ 20 µM | Kd (HLA-A*02:03): ≥ 20 µM | Kd (HLA-B*39:01; [4]): ≥ 20 µM | Kd (HLA-B*46:01; [4]): ≥ 20 µM | Kd (HLA-A*02:12; [4]): ≥ 20 µM | Kd (HLA-B*15:01; [4]): ≥ 20 µM | Kd (HLA-B*18:01; [4]): ≥ 20 µM | Kd (HLA-A*02:16): ≥ 20 µM | Kd (HLA-A*29:02; [4]): ≥ 20 µM | Kd (HLA-A*02:01; [4]): ≥ 20 µM | Kd (HLA-B*15:17; [4]): ≥ 20 µM | Kd (HLA-B*51:01; [4]): ≥ 20 µM | Kd (HLA-A*02:19; [4]): ≥ 20 µM
